Molecular target: T1, His-Bub1TPR (fission yeast Bub1 residues 22-184) (S. pombe, UniProt O94751 22-184)
T1 construct: Bub1, S. pombe, TPR domain, residues 22-184; Cloned into pET-DUET; also called recombinant Bub1-TPR; source: E. coli ArcticExpress, purified (cobalt IMAC, dialysis); not shown: His, N-terminal, kept
T1 sequence (looked up): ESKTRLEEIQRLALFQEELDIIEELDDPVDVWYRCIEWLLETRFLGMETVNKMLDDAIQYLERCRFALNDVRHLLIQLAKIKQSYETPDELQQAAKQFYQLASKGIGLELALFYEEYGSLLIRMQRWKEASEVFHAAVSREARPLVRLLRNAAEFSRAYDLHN
Assay: SEC; Superdex 200 increase 10/300 in 50 mM Tris pH 8.0, 150 mM NaCl, 5% glycerol, 2 mM DTT; proteins alone and mixed, fractions on SDS-PAGE
Conditions: both partners purified

B1: His-GFP-Mad3TPR (fission yeast Mad3 residues 44-201) (domain or fragment, S. pombe, UniProt O59767 44-201, looked up)
chain: TEKEVAGLQKERMGHERKIETSESLDDPLQVWIDYIKWTLDNFPQGETKTSGLVTLLERCTREFVRNPLYKDDVRYLRIWMQYVNYIDEPVELFSFLAHHHIGQESSIFYEEYANYFESRGLFQKADEVYQKGKRMKAKPFLRFQQKYQQFTHRWLEF
notes: Mad3, S. pombe, TPR domain, residues 44-201; Cloned into the 9GFP (N-terminal His-GFP tag) LIC vector; source: E. coli ArcticExpress, purified (cobalt IMAC, dialysis); not shown: His, N-terminal, kept; GFP, N-terminal, kept
- binding result: binds

Reference: publication PMC6657678, “The Bub1-TPR Domain Interacts Directly with Mad3 to Generate Robust Spindle Checkpoint Arrest” (Current Biology, 2019)
